These are literature values, as cited in patent publication US9205345B2, “Spray-drying apparatus and methods of using the same” (Bend Research, Inc., priority 2010, dated 2015).

Experiment in data set [1]: not given
This is another data set of the same source.

Experiment in data set [2]: not given
This is another data set of the same source.

Consider `CC(C)(C)NCC(O)c1ccc(O)c(CO)c1` (centres unmarked) [Active Agent 1, 4-[2-(tert-butylamino)-1-hydroxyethyl]-2-(hydroxymethyl)phenol, reference compound], for which the solubility in water result was “freely soluble in water”. Moreover, the “Log P” value in data set [1] is given as 0.11.
In the case of Peptide YY (PYY) [Active Agent 3], the solubility in water entry is given as “soluble in water”.
insulin [Active Agent 2]: the “Log P” value in data set [1] was 0.22. Also, in data set [2], the pKa is 5.39.

One may read the Log P as the decadic logarithm of the partition coefficient of the neutral form, usually between octanol and water. As usually defined, the pKa is the pH at which an ionisable group is half protonated.
